Measured values taken from patent US20030040612A1 (MOUNT SINAI SCHOOL OF MEDICINE, published 2003).

Tests used:
[1] = target: SNT-1 PTB domain (residues 11-140 of SEQ ID NO:1) (human) (UniProt Q8WU20); test: method not stated
[2] = target: T1, SNT-1 PTB domain (residues 11-140 of SEQ ID NO:1) (human, UniProt Q8WU20 11-140); test: isothermal titration calorimetry (ITC)
T1 construct: Recombinant from E. coli, isotope labelled for NMR; His6 tag cleaved with thrombin; Used in NMR and ITC; also called PTB Domain of SNT-1; SNT PTB domain
T1 sequence: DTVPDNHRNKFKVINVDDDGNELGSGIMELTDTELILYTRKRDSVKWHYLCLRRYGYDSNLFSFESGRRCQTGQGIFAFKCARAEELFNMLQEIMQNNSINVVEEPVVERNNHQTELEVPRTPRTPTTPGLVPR

[3] = target: T2, juxtamembrane region of hFGFR1 as GAL4 DNA binding domain (BD) fusion protein, wild type (called hFGFR1 (human); SEQ ID NO:2 is …); test: yeast two-hybrid, colony growth on His-, Leu-, Trp- medium
T2 construct: Yeast two-hybrid construct; also called wild type hFGFR1
Experimental: Mutagenesis and Yeast Two-Hybrid Binding Assays: The yeast two-hybrid binding studies of the SNT-1 PTB domain binding to hFGFR1 or tyrosine-phosphorylated TRK were performed as described previously [Xu et al., J. Biol. Chem. 273:17987-17990 (1998)]. Briefly, SNT-1 cDNA fragments were cloned into the pACT2 expression vector (Clontech) for expression as GAL4 DNA activation domain (AD) fusion proteins followed by C-terminal AU1-epitope tags. The juxtamembrane region of hFGFR1 was cloned into the pAS2-1 expression vector (Clontech) for expression as a GAL4 DNA binding domain (BD) fusion protein. This plasmid served as a template for site-directed mutagenesis of hFGFR1 using the QuikChange kit (Stratagene). DNA sequencing confirmed the mutations. AD and BD plasmids were co-transformed into Saccharomyces cerevisiae strain pJ69-4A and plated onto selective media. The synthetic medium lacking the amino acids Leu and Trp (Leu⁻, Trp⁻) selected for plasmid uptake. […] Levels of protein interaction were scored by relative colony growth on these plates. […] Similarly, expression of wild type and mutant hFGFR1 was detected by immunoprecipitation with a rabbit polyclonal antibody specific for BD (Santa Cruz Biotech) and western blotting with mouse monoclonal anti-BD antibody (Santa Cruz Biotech).

## tyrosine-phosphorylated peptide LVIAGNPApYRS (SEQ ID NO:4)
[1]
  Kd: 1 µM
  fold higher affinity than for the FGFR derived peptide of SEQ ID NO:3: 10 fold

B1: hFGFR1 peptide, 22-residue peptide derived from the juxtamembrane region of hFGFR1 (residues 409-430 of SEQ ID NO:2), HSQMAVHKLAKSIPLRRQVTVS (SEQ ID NO:3) (peptide)
peptide: HSQMAVHKLAKSIPLRRQVTVS
notes: Synthetic peptide, not phosphorylated; also called FGFR peptide; FGF receptor peptide
[2]
  Kd: ~10 µM

B2: truncated SNT-1 PTB domain lacking the β8 region (residues 2-111), GAL4 AD fusion (other, not shown: large carriers; small tags and cut ends)
chain: GSCCSCPDKDTVPDNHRNKFKVINVDDDGNELGSGIMELTDTELILYTRKRDSVKWHYLCLRRYGYDSNLFSFESGRRCQTGQGIFAFKCARAEELFNMLQEIMQNNSIN
notes: Yeast two-hybrid construct; also called SNT-1 PTB domain protein lacking the β8 strand
[3]
  binding result: no binding
